Reference: PMC7171158

Target: NusA-AR2^D443C labeled with fluorescein-5-maleimide (E. coli) (UniProt P0AFF6)
Assay: fluorescence polarisation; fluorescence anisotropy; 25 nM fluorescein-labeled NusA-AR2^D443C with increasing unlabeled protein; 25 °C; 50 mM Na-P pH 6.5, 100 mM NaCl, 150 mM glucose, 5 mM DTT, 0.05% Tween; two-state binding model

B1: λQ deletion variant lacking 36 residues at the N-terminus (λQ^Δ36) (domain or fragment)
chain: AMGMAQSQAGFGMAAFCGKHELSQNDKQKAINYLMQFAHKVSGKYRGVAKLEGNTKAKVLQVLATFAYADYCRSAATPGARCRDCHGTGRAVDIAKTELWGRVVEKECGRCKGVGYSRMPASAAYRAVTMLIPNLTQPTWSRTVKPLYDALVVQCHKEESIADNILNAVTR
Kd: 271 µM

B2: antiterminator protein Q from phage λ (λQ), full length (natural protein)
chain: MRLESVAKFHSPKSPMMSDSPRATASDSLSGTDVMAAMGMAQSQAGFGMAAFCGKHELSQNDKQKAINYLMQFAHKVSGKYRGVAKLEGNTKAKVLQVLATFAYADYCRSAATPGARCRDCHGTGRAVDIAKTELWGRVVEKECGRCKGVGYSRMPASAAYRAVTMLIPNLTQPTWSRTVKPLYDALVVQCHKEESIADNILNAVTR
Kd: 268 µM
